Experimental data taken from publication PMC9384509.

Key:
[1] = target: human Angiotensin Converting Enzyme 2 (ACE2, amino acids 19-615) fused to human IgG Fc (human) (UniProt Q9BYF1)
[2] = target: human Angiotensin Converting Enzyme 2 (ACE2, amino acids 19-615) fused to human IgG Fc (human) (UniProt Q9BYF1); assay: SPR

Substance	reduction of the surface membrane ACE2 level on pericytes (immunohistochemistry, overlap with PDGFRβ) after 3 h of RBD (0.7 mg/l) on hamster brain slices; ACE2 is the endogenous hamster protein [1] [%]	percent reduction of binding against RBD-WT [2] [%]
SARS-CoV-2 receptor binding domain (RBD, original Wuhan variant), amino acids 330-532 (domain or fragment)	32	
SARS-CoV-2 receptor binding domain Y489R mutant (RBD-Y489R) (domain or fragment; other documents disagree on this pair)		94
